Entries after “also recorded” stand apart in the source; their conditions may differ. Each block holds one molecule with its values, some of them ahead of it. Where no end group is shown, it is not given here.
What was measured:
[1] = target: T1, α2β3γ2 GABAAR co-expressed with human UT (Homo sapiens, UniProt Q9UKP6); experiment: Patch-clamp of Iso-evoked current in CHO-UT co-expressing α2β3γ2 GABAAR (CHO-UT-GABAAR); type: cell-based
T1 construct: expressed in transfected cells; host or cells: CHO-K1 stably expressing human UT (pIRES-neo2-UT), transiently nucleofected with GABAAR subunit cDNAs
T1 sequence (Q9UKP6 1-389): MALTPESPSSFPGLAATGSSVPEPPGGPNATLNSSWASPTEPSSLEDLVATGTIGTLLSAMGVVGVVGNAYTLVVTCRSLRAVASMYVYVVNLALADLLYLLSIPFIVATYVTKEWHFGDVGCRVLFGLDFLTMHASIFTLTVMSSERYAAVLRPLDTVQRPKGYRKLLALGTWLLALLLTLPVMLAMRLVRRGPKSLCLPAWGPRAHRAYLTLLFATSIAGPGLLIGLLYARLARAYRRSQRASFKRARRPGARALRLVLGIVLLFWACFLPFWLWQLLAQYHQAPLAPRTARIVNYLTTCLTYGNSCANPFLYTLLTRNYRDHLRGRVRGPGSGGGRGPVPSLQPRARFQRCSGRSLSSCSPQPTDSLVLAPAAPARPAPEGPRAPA
Protocol: (§1) CHO-K1 cell lines were obtained from American Type Culture Collection (Manassas, VA, USA). The human UT stable CHO (CHO-UT) was generously provided by Dr Christophe Dubessy (Inserm, Rouen University, France) et generated by CHO electroporation with 20 µg pIRES-neo2-UT DNA and 500 µg sterile sonicated salmon sperm DNA using the EasyJect One electroporation system (Equibio, Angleur, Belgium), followed by repetitive rounds of limiting dilution of cells in G-418 (400 µg/ml) for selection. Normal or stable CHO was grown in Ham-F12 medium supplemented with 10% FBS, 1% antibiotic-antimicotic solution and 2 mM glutamine, at 37°C in a humidified incubator with an atmosphere of 5% CO2. The stable CHO-UT medium was supplemented with the antibiotic G-418 (40 µg/ml).
(§2) For transfection, cells were trypsinized (0.05%), triturated in HamF-12 containing 10% FBS media, pelleted by centrifugation, resuspended in 100 µl solution V for nucleofection by an Amaxa Nucleofector Device (Köln, Germany; set to program U-016). Experiments were performed on normal CHO or on the stable CHO-UT cells and transiently transfected with combinations of cDNA encoding α2β3γ2, α2β3γ1, α2β1γ2, α2β3γ1, α2β3, β3γ2 (4 µg of cDNA total/transfection) GABAAR subunits. Cells were seeded on 14-mm poly-L-lysine-coated glass bottom insert dishes at 5×10^5 cells in a volume of 0.5 ml/dish. Cells were incubated overnight at 37°C in a humidified incubator (5% CO2) during 16 h before electrophysiological or immunocytochemical experiments.
(§3) GABAA receptor cDNA clones; α2, β1, β3, γ1 and γ2L engineered into the expression vector pCDM8 ([…], β1, γ2) or pcDNA/Amp (β3, γ1), were generously provided by Dr Wingrove (Merk Sharp and Dohme, Harlow, UK). To obtain β3 ^HA or γ2 ^HA epitope-tagged subunits, β3 or γ2 cDNA was amplified and the PCR product was subcloned using the SalI and NotI sites of pCMV-HA (Table S2) after digestion by the same restriction enzymes.
(§4) The conventional whole-cell configuration of the patch-clamp technique was used to study the GABA-gated currents in astrocytes and granule neurons, UT stably transfected CHO, CHO-UT, and CHO transiently transfected with diverse variants of UT and GABAAR subunits. After 24-h transfection, cell culture coverslips were placed in a small chamber (1.5 ml) on a stage of a right microscope DMLFSA (Leica, Heidelberg, Germany) and superfused continuously with the following bath solution containing (in mM): NaCl, 150; KCl, 2.5; HEPES, 5; CaCl2, 2; MgCl2, 1; glucose, 10 (pH 7.4 adjusted with NaOH). The patch pipettes were fabricated from 1.5 mm (outer diameter) soft glass tubes on a two-step vertical pipette puller (List-Medical, L/M-3P-A, Darmstadt, Germany). […] ATP and GTP were added to the internal solution used to fill electrode just before recording. All recordings were obtained at RT with cells voltage-clamped at −70 mV. The GABAA receptor agonist isoguvacine was prepared in the extracellular solution and was applied to cells by pneumatic pressure ejection. To prevent desenzitization, isoguvacine was more often ejected during 5 s at 2-min intervals. ATP, GTP, or guanosine 5′-O-(2-thiodiphosphate) (GDPβS) were administered through the patch pipette solution. We investigated the effect of competitive inhibition of GDP-GTP exchange by including GDPβS in the pipette solution (in addition to the normal amount of GTP). For GDPβS and the KIC, immediately following patch rupture, GABA current recordings were performed and the experiment was commenced after an equilibration period of 15 min.
All peptide ligands, inhibitors or allosteric modulators of the GABAA receptor function were applied via gravity through a plastic tubing positioned in the vicinity of the cell body in order to maintain a sustained perfusion. In these conditions, drugs could reach the cell of interest after 30 s of perfusion. Isoguvacine was applied focally by pneumatic pressure ejection from a micropipette.

[2] = tested on: α2β3γ2 GABAAR in the absence of UT; experiment: Patch-clamp of Iso-evoked current in CHO expressing α2β3γ2 GABAAR without UT; type: cell-based; settings: DMCM 10^−5 M; hUII and URP 10^−8 M; [Orn^5]-URP and palosuran 10^−6 M; Iso 10^−4 M, 2 s; n = 3–18
Protocol: as §2, §3
as §4, with “min. […]” for “min.”

human UT [3] = target: T2, human UT (Homo sapiens, UniProt Q9UKP6); experiment: Fura-2 calcium imaging ([Ca^2+]c) in CHO-UT; type: cell-based
T2 construct: expressed in transfected cells; host or cells: CHO-K1 electroporated with pIRES-neo2-UT, G-418 selected
T2 sequence (Q9UKP6 1-389): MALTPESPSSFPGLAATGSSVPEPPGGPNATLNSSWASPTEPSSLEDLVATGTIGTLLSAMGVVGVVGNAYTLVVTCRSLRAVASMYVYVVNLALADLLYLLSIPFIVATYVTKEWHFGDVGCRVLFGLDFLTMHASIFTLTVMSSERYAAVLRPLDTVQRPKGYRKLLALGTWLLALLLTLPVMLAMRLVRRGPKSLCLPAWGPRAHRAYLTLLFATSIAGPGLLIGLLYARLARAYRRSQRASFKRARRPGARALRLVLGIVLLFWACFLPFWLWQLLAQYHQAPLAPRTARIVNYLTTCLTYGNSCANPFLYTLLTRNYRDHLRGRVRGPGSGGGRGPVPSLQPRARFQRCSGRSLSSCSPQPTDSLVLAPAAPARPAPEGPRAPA
Protocol: as §1
For cell calcium imaging, Fura-2 AM (5 mM, Molecular Probe; Fisher, Cergy-Pontoise, France) was dissolved in 20% pluronic F-127 (w/v, DMSO) and then added to culture medium at final concentrations of 5 µM and 0.02%, with 2.5 mM probenecid (Sigma-Aldrich) respectively. Cells were incubated in the dye solution for 1 h in an humidified atmosphere (37°C, 5% CO2) and then rinsed in the standard extracellular solution used for patch-clamp experiments. For simultaneous measurements of intracellular calcium and chloride-evoked currents in CHO, patch-clamp electrodes were filled with an internal solution containing : KCl, 140; MgCl2, 4; Fura-2-pentoK, 0.25; HEPES, 10; ATP, 1; GTP, 0.1 (pH 7.4 adjusted with KOH). Fluorescence images were acquired with the right microscope DMLFSA (Leica) equipped with a digital CCD camera Coolsnap HQ (Photometrics, Roper scientific, Evry, France). A high-speed scanning polychromatic light source was used for alternate excitations at wavelenghts of 340 and 380 nm. The fluorescence intensities at both wavelenghts (F340 and F380) were mesured every 500 ms. Image acquisition and analysis were obtained with a MetaFluor/Metamorph Imaging System (Roper scientific). The ratio between the two images was proportional to the [Ca^2+]c in the cell under study. Before an experiment, the bath ground level of fluorescence (attributable to autofluorescence and camera noise) was determined and systematically substracted.

human UT [4] = target: T2, human UT; settings: ref [54], [55]; cited from earlier work
[5] = target: T3, human urotensin II receptor UT, stably expressed in CHO (CHO-UT) (human) (UniProt Q9UKP6)
T3 sequence: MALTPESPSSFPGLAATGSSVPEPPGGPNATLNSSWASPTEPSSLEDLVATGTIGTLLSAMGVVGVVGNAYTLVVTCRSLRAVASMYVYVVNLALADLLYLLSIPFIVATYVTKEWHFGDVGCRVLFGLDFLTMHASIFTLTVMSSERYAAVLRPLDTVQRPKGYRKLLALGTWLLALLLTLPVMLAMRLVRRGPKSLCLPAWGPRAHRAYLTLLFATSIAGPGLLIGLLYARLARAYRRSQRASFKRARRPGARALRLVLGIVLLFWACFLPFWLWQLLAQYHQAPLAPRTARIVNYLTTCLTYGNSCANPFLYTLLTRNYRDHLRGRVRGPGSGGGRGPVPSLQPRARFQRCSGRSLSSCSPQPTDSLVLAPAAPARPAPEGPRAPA

[6] = target: T3, human urotensin II receptor UT, stably expressed in CHO (CHO-UT) (human); remark: listed apart in the source

Molecule: URP: paralog urotensin II-related peptide sharing the fully conserved C-terminal cyclic CFWKYC core
Inhibition of Iso-evoked current ([1]; 10^−8 M, Iso 10^−4 M, mean ± SEM, hUII n = 54, URP n = 12): 22.9±3.5%
Persistence/reversibility of current inhibition during washout ([1]; 10^−8 M, Iso-evoked current): slightly recovered during washout; also recorded: triggers a reversible inhibition
Effect on Iso-evoked current in the absence of UT [2]: failed to affect the amplitude of the current
Reversibility of [Ca^2+]c increase during washout (human UT [3]; 10^−8 M): totally recovered after 16-min washout; also recorded: recovered to the basal line level
Increase of the amplitude of baseline [Ca^2+]c (human UT [3]; hUII and URP 10^−8 M, [Orn^5]-URP 10^−6 M, mean from 9 to 25 cells): 341%

Effect/profile of antagonist on [Ca^2+]c (human UT [3]; 10^−6 M): failed to evoke a [Ca^2+]c rise
Molecule: Cc1cc(NC(=O)NCCN2CCC(O)(Cc3ccccc3)CC2)c2ccccc2n1.O=S(=O)(O)O [palosuran, 1-[2-(4-benzyl-4-hydroxy-piperidin-1-yl)-ethyl]-3-(2-methyl-quinolin-4-yl) -urea sulfate salt]
Effect of UT antagonist alone on Iso-evoked current ([1]; 10^−6 M, n = 7–54): mimicked the hUII-induced inhibition of the Iso-evoked current; also recorded: mimics the effect of UII by inhibiting the chloride current
Effect on prolonged/irreversible action of hUII during washout on Iso-evoked current ([1]; antagonist 10^−6 M with hUII): abolished the irreversible action of hUII during washout
Effect on Iso-evoked current in the absence of UT [2]: did not modulate the Iso-evoked current
Effect on hUII-induced [Ca^2+]c increase (human UT [3]; antagonist 10^−6 M before and during hUII): completely blocked the hUII-induced [Ca^2+]c increase; also recorded: counteracts the UII-evoked [Ca^2+]c increase
Affinity toward human UT (human UT [4]): high affinity

[Ca^2+]c increase (Fura-2 imaging) in CHO-UT, [Orn^5]-URP 10^-6 M; behaved as a partial agonist and prevented the sustained effect of hUII on [Ca^2+]c [5]: 265%
Molecule: [Orn^5]-URP (peptide)

inhibition of the isoguvacine-evoked chloride current (whole-cell patch clamp) in CHO-UT co-expressing alpha2beta3gamma2 GABAAR, URP 10^-8 M (n = 12) [6]: 22.9%
increase of the amplitude of baseline [Ca^2+]c (Fura-2 imaging) in CHO-UT, URP 10^-8 M in the bath; recovered after 16-min washout [5]: 341%
Molecule: ACFWKYCV (also: cyclic CFWKYC core, bridge type not given here) [urotensin II-related peptide]

— paper PMC3341351, “Down-Regulation of GABAA Receptor via Promiscuity with the Vasoactive Peptide Urotensin II Receptor. Potential Involvement in Astrocyte Plasticity” (PLoS ONE, 2012)
